Measurements from publication PMC3553500 (2013).

Biological target: GAPDH (Homo sapiens, UniProt P04406)
Test: ELISA

Sequence of GAPDH (P04406 2-335): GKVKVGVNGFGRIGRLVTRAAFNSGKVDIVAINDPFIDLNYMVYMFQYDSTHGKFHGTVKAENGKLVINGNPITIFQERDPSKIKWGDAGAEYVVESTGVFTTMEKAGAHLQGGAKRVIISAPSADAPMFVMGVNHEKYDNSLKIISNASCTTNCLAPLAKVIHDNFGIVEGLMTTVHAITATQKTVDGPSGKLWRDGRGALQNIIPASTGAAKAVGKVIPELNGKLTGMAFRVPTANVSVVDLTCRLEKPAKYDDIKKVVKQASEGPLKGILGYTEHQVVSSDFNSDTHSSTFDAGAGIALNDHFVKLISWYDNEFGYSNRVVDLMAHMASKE

B1: TRAF2 (protein)
chain: AAASVTPPGSLELLQPGFSKTLLGTKLEAKYLCSACRNVLRRPFQAQCGHRYCSFCLASILSSGPQNCAACVHEGIYEEGISILESSSAFPDNAARREVESLPAVCPSDGCTWKGTLKEYESCHEGRCPLMLTECPACKGLVRLGEKERHLEHECPERSLSCRHCRAPCCGADVKAHHEVCPKFPLTCDGCGKKKIPREKFQDHVKTCGKCRVPCRFHAIGCLETVEGEKQQEHEVQWLREHLAMLLSSVLEAKPLLGDQSHAGSELLQRCESLEKKTATFENIVCVLNREVERVAMTAEACSRQHRLDQDKIEALSSKVQQLERSIGLKDLAMADLEQKVLEMEASTYDGVFIWKISDFARKRQEAVAGRIPAIFSPAFYTSRYGYKMCLRIYLNGDGTGRGTHLSLFFVVMKGPNDALLRWPFNQKVTLMLLDQNNREHVIDAFRPDVTSSSFQRPVNDMNIASGCPLFCPVSKMEAKNSYVRDDAIFIKAIVDLTGL
With B1 as the binder, how does the Kd read?
The Kd was 96 µM.
